Publication PMC5342696

Target: membrane IgG (mIgG) on IgG-expressing B-cell lines (human (endogenous in CRL 2632 and CRL 2289)) [IgG part: P01857]
Test: hemadsorption/hemagglutination (protein G-RBC rosetting); mIgG-expressing B-cells exposed to protein G-RBCs at 4°C without added mAb, rosettes scored by phase contrast microscopy

protein G on red blood cells (protein G-RBC) (from UniProt P19909 34-562) (natural protein)
HA background (percent rosetted cells): < 30%
